Measured values reported in patent publication US20260242735A1 (UNIVERSIT T BASEL, published 2026).

Columns and labels:
Test in all cases: alanine scan, flow cytometry;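 also: HEK293-T cells transiently expressing single-residue alanine mutants of CD33 (alanine swapped to serine), antibody binding read by fluorescence in duplicate, background-subtracted, expressed relative to wild-type CD33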
human CD33 W22A = human CD33 W22A (human, UniProt P20138 18-364)
human CD33 V25A = human CD33 V25A (human, UniProt P20138 18-364)
human CD33 Q26A = human CD33 Q26A (human, UniProt P20138 18-364)
Chain of human CD33 Q26A (P20138 18-364 Q26A limits assumed): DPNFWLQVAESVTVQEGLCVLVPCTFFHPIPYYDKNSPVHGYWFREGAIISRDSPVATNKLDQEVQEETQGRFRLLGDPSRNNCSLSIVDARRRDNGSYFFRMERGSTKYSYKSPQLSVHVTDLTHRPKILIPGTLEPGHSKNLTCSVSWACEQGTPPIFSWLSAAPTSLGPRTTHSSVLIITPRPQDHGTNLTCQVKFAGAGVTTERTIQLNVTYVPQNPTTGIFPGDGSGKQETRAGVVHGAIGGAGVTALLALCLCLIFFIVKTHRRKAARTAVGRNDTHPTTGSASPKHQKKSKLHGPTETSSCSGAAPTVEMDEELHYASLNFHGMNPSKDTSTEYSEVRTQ

human CD33 E27A = human CD33 E27A (human, UniProt P20138 18-364)
Chain of human CD33 E27A (P20138 18-364 E27A limits assumed): as the sequence (P20138 18-364 Q26A limits assumed) above, with A9Q, E10A counted along it

human CD33 V29A = human CD33 V29A (human, UniProt P20138 18-364)
human CD33 V31A = human CD33 V31A (human, UniProt P20138 18-364)
Chain of human CD33 V31A (P20138 18-364 V31A limits assumed): as the sequence (P20138 18-364 Q26A limits assumed) above, with A9Q, V14A counted along it

human CD33 Q32A = human CD33 Q32A (human, UniProt P20138 18-364)
human CD33 G34A = human CD33 G34A (human, UniProt P20138 18-364)
human CD33 C36A = human CD33 C36A (human, UniProt P20138 18-364)
human CD33 V37A = human CD33 V37A (human, UniProt P20138 18-364)
human CD33 L38A = human CD33 L38A (human, UniProt P20138 18-364)
human CD33 V39A = human CD33 V39A (human, UniProt P20138 18-364)
human CD33 P46A = human CD33 P46A (human, UniProt P20138 18-364)
Chain of human CD33 P46A (P20138 18-364 P46A limits assumed): as the sequence (P20138 18-364 Q26A limits assumed) above, with A9Q, P29A counted along it

human CD33 I47A = human CD33 I47A (human, UniProt P20138 18-364)
Chain of human CD33 I47A (P20138 18-364 I47A limits assumed): as the sequence (P20138 18-364 Q26A limits assumed) above, with A9Q, I30A counted along it

human CD33 P48A = human CD33 P48A (human, UniProt P20138 18-364)
human CD33 Y49A = human CD33 Y49A (human, UniProt P20138 18-364)
Chain of human CD33 Y49A (P20138 18-364 Y49A limits assumed): as the sequence (P20138 18-364 Q26A limits assumed) above, with A9Q, Y32A counted along it

human CD33 Y50A = human CD33 Y50A (human, UniProt P20138 18-364)
human CD33 D51A = human CD33 D51A (human, UniProt P20138 18-364)
Chain of human CD33 D51A (P20138 18-364 D51A limits assumed): as the sequence (P20138 18-364 Q26A limits assumed) above, with A9Q, D34A counted along it

human CD33 S54A = human CD33 S54A (human, UniProt P20138 18-364)
human CD33 V56A = human CD33 V56A (human, UniProt P20138 18-364)
Chain of human CD33 V56A (P20138 18-364 V56A limits assumed): as the sequence (P20138 18-364 Q26A limits assumed) above, with A9Q, V39A counted along it

human CD33 W60A = human CD33 W60A (human, UniProt P20138 18-364)
human CD33 I66A = human CD33 I66A (human, UniProt P20138 18-364)
Chain of human CD33 I66A (P20138 18-364 I66A limits assumed): as the sequence (P20138 18-364 Q26A limits assumed) above, with A9Q, I49A counted along it

human CD33 I67A = human CD33 I67A (human, UniProt P20138 18-364)
human CD33 S68A = human CD33 S68A (human, UniProt P20138 18-364)
human CD33 R69A = human CD33 R69A (human, UniProt P20138 18-364)
human CD33 S71A = human CD33 S71A (human, UniProt P20138 18-364)
human CD33 D18A = human CD33 D18A (human, UniProt P20138 19-364)
human CD33 T75A = human CD33 T75A (human, UniProt P20138 18-364)
human CD33 K77A = human CD33 K77A (human, UniProt P20138 18-364)
human CD33 D79A = human CD33 D79A (human, UniProt P20138 18-364)
Chain of human CD33 D79A (P20138 18-364 D79A limits assumed): as the sequence (P20138 18-364 Q26A limits assumed) above, with A9Q, D62A counted along it

human CD33 E81A = human CD33 E81A (human, UniProt P20138 18-364)
human CD33 P19A = human CD33 P19A (human, UniProt P20138 18-364)
human CD33 Q83A = human CD33 Q83A (human, UniProt P20138 18-364)
Chain of human CD33 Q83A (P20138 18-364 Q83A limits assumed): as the sequence (P20138 18-364 Q26A limits assumed) above, with A9Q, Q66A counted along it

human CD33 E84A = human CD33 E84A (human, UniProt P20138 18-364)
Chain of human CD33 E84A (P20138 18-364 E84A limits assumed): as the sequence (P20138 18-364 Q26A limits assumed) above, with A9Q, E67A counted along it

human CD33 E85A = human CD33 E85A (human, UniProt P20138 18-364)
human CD33 T86A = human CD33 T86A (human, UniProt P20138 18-364)
Chain of human CD33 T86A (P20138 18-364 T86A limits assumed): as the sequence (P20138 18-364 Q26A limits assumed) above, with A9Q, T69A counted along it

human CD33 Q87A = human CD33 Q87A (human, UniProt P20138 18-364)
human CD33 R89A = human CD33 R89A (human, UniProt P20138 18-364)
human CD33 F90A = human CD33 F90A (human, UniProt P20138 18-364)
human CD33 R91A = human CD33 R91A (human, UniProt P20138 18-364)
Chain of human CD33 R91A (P20138 18-364 R91A limits assumed): as the sequence (P20138 18-364 Q26A limits assumed) above, with A9Q, R74A counted along it

human CD33 N20A = human CD33 N20A (human, UniProt P20138 18-364)
human CD33 L92A = human CD33 L92A (human, UniProt P20138 18-364)

B1: Refmab #4 (antibody, V domains shown)
VH: QVQLVQSGAEVKKPGESVKVSCKASGYTFTNYGMNWVKQAPGQGLEWMGWINTYTGEPTYADKFQGRVTMTTDTSTSTAYMEIRNLGGDDTAVYYCARWSWSDGYYVYFDYWGQGTSVTVSS
VL: DIVMTQSPDSLTVSLGERTTINCKSSQSVLDSSTNKNSLAWYQQKPGQPPKLLLSWASTRESGIPDRFSGSGSGTDFTLTIDSPQPEDSATYYCQQSAHFPITFGQGTRLEIK
notes: Full-length format is human IgG1 Fc silent (PG-LALA); The alanine scan used IgG or Fab
- Mean % WT Binding (human CD33 W22A): 187 % WT
- Mean % WT Binding (human CD33 V25A): 49.1 % WT
- Mean % WT Binding (human CD33 Q26A): 63.1 % WT
- Mean % WT Binding (human CD33 E27A): 42.9 % WT
- Mean % WT Binding (human CD33 V29A): 84.4 % WT
- Mean % WT Binding (human CD33 V31A): 97.9 % WT
- Mean % WT Binding (human CD33 Q32A): 83 % WT
- Mean % WT Binding (human CD33 G34A): 93.4 % WT
- Mean % WT Binding (human CD33 C36A): 108 % WT
- Mean % WT Binding (human CD33 V37A): 78.7 % WT
- Mean % WT Binding (human CD33 L38A): 96.8 % WT
- Mean % WT Binding (human CD33 V39A): 58.4 % WT
- Mean % WT Binding (human CD33 P46A): 135 % WT
- Mean % WT Binding (human CD33 I47A): 144 % WT
- Mean % WT Binding (human CD33 P48A): 8.4 % WT
- Mean % WT Binding (human CD33 Y49A): 3.1 % WT
- Mean % WT Binding (human CD33 Y50A): 3.5 % WT
- Mean % WT Binding (human CD33 D51A): 36 % WT
- Mean % WT Binding (human CD33 S54A): 99.9 % WT
- Mean % WT Binding (human CD33 V56A): 56.8 % WT
- Mean % WT Binding (human CD33 W60A): 1 % WT
- Mean % WT Binding (human CD33 I66A): 108 % WT
- Mean % WT Binding (human CD33 I67A): 67.2 % WT
- Mean % WT Binding (human CD33 S68A): 90.4 % WT
- Mean % WT Binding (human CD33 R69A): 118 % WT
- Mean % WT Binding (human CD33 S71A): 99.4 % WT
- Mean % WT Binding (human CD33 D18A): 110 % WT
- Mean % WT Binding (human CD33 T75A): 93.8 % WT
- Mean % WT Binding (human CD33 K77A): 123 % WT
- Mean % WT Binding (human CD33 D79A): 74.5 % WT
- Mean % WT Binding (human CD33 E81A): 90.6 % WT
- Mean % WT Binding (human CD33 P19A): 20.4 % WT
- Mean % WT Binding (human CD33 Q83A): 104 % WT
- Mean % WT Binding (human CD33 E84A): 120 % WT
- Mean % WT Binding (human CD33 E85A): 110 % WT
- Mean % WT Binding (human CD33 T86A): 103 % WT
- Mean % WT Binding (human CD33 Q87A): 94.2 % WT
- Mean % WT Binding (human CD33 R89A): 71.6 % WT
- Mean % WT Binding (human CD33 F90A): 82.3 % WT
- Mean % WT Binding (human CD33 R91A): 100 % WT
- Mean % WT Binding (human CD33 N20A): 158 % WT
- Mean % WT Binding (human CD33 L92A): 85.2 % WT

B2: Refmab #3 (antibody, V domains shown)
VH: QVQLVQSGAEVKKPGSSVKVSCKASGYTFTDYNMHWVRQAPGQGLEWIGYIYPYNGGTGYNQKFKSKATITADESTNTAYMELSSLRSEDTAVYYCARGRPAMDYWGQGTLVTVSS
VL: DIQMTQSPSSLSASVGDRVTITCRASESVDNYGISFMNWFQQKPGKAPKLLIYAASNQGSGVPSRFSGSGSGTDFTLTISSLQPDDFATYYCQQSKEVPWTFGQGTKVEIK
notes: as for B1
- Mean % WT Binding (human CD33 W22A): 58.6 % WT
- Mean % WT Binding (human CD33 V25A): 109 % WT
- Mean % WT Binding (human CD33 Q26A): 124 % WT
- Mean % WT Binding (human CD33 E27A): 153 % WT
- Mean % WT Binding (human CD33 V29A): 115 % WT
- Mean % WT Binding (human CD33 V31A): 127 % WT
- Mean % WT Binding (human CD33 Q32A): 133 % WT
- Mean % WT Binding (human CD33 G34A): 99.4 % WT
- Mean % WT Binding (human CD33 C36A): 102 % WT
- Mean % WT Binding (human CD33 V37A): 150 % WT
- Mean % WT Binding (human CD33 L38A): 192 % WT
- Mean % WT Binding (human CD33 V39A): 122 % WT
- Mean % WT Binding (human CD33 P46A): 8.8 % WT
- Mean % WT Binding (human CD33 I47A): 165 % WT
- Mean % WT Binding (human CD33 P48A): 167 % WT
- Mean % WT Binding (human CD33 Y49A): 86.6 % WT
- Mean % WT Binding (human CD33 Y50A): 109 % WT
- Mean % WT Binding (human CD33 D51A): 126 % WT
- Mean % WT Binding (human CD33 S54A): 106 % WT
- Mean % WT Binding (human CD33 V56A): 42.6 % WT
- Mean % WT Binding (human CD33 W60A): 28.3 % WT
- Mean % WT Binding (human CD33 I66A): 126 % WT
- Mean % WT Binding (human CD33 I67A): 142 % WT
- Mean % WT Binding (human CD33 S68A): 115 % WT
- Mean % WT Binding (human CD33 R69A): 188 % WT
- Mean % WT Binding (human CD33 S71A): 118 % WT
- Mean % WT Binding (human CD33 D18A): 37.8 % WT
- Mean % WT Binding (human CD33 T75A): 118 % WT
- Mean % WT Binding (human CD33 K77A): 192 % WT
- Mean % WT Binding (human CD33 D79A): 105 % WT
- Mean % WT Binding (human CD33 E81A): 114 % WT
- Mean % WT Binding (human CD33 P19A): 75.2 % WT
- Mean % WT Binding (human CD33 Q83A): 103 % WT
- Mean % WT Binding (human CD33 E84A): 137 % WT
- Mean % WT Binding (human CD33 E85A): 112 % WT
- Mean % WT Binding (human CD33 T86A): 112 % WT
- Mean % WT Binding (human CD33 Q87A): 161 % WT
- Mean % WT Binding (human CD33 R89A): 126 % WT
- Mean % WT Binding (human CD33 F90A): 138 % WT
- Mean % WT Binding (human CD33 R91A): 150 % WT
- Mean % WT Binding (human CD33 N20A): 34.9 % WT
- Mean % WT Binding (human CD33 L92A): 129 % WT
